This is an account of results in the supplement of paper PMC5998384.

The test system of data set [1] is HeLa Kyoto. Kind of data set: solubility in G1/S (NP-40 vs SDS abundance) (log2 ratio); higher = more soluble. The conditions noted are these: cell cycle stage: G1/S.
Data set [2] deals with HeLa Kyoto. Kind of data set: melting temperature (median over replicates), in situ; higher = more thermally stable.
Data set [3] deals with HeLa Kyoto. Kind of data set: solubility change mitosis vs G1/S (difference of NP-40 vs SDS log2 ratios) (log2 ratio difference); higher = more soluble in mitosis.
For data set [4], the system named is HeLa Kyoto. Kind of data set: thermal stability score vs G1/S (z-score of summed log2 fold changes over temperatures); higher = more thermally stable than in G1/S.
[5] abbreviates: cell cycle stage: early G1 (4.5 h after nocodazole release).
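Throughout, for melting temperature (median over replicates), in situ: HeLa Kyoto cells synchronized by double thymidine or nocodazole block, proteins quantified by TMT10plex mass spectrometry, three independent biological replicates.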
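Throughout, for solubility change mitosis vs G1/S (difference of NP-40 vs SDS log2 ratios): synchronized HeLa Kyoto cells (double thymidine block for G1/S, nocodazole release for mitosis), protein amounts in NP-40 versus SDS lysates quantified by mass spectrometry, three biological replicates.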
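Throughout, for solubility in G1/S (NP-40 vs SDS abundance): HeLa Kyoto cells arrested at G1/S by double thymidine block, proteins quantified by TMT10plex mass spectrometry in mild NP-40 versus SDS extracts, three biological replicates.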
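Throughout, for thermal stability score vs G1/S (z-score of summed log2 fold changes over temperatures): synchronized HeLa Kyoto cells, proteins quantified by TMT10plex mass spectrometry, three biological replicates, mitosis taken 0.5 h after nocodazole release, G1/S directly after double thymidine block.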

Consider “MSQPGIPASGGAPASLQAQNGAALASGSPYTNGPVQNALLSSQESVSQGYNFQLPGSYPHPIPAKTLNPVSGQSNYGGSQGSGQTLNRPPVASNPVTPSLHSGPAPRMPLPASQNPATTPMPSSSFLPEANLPPPLNWQYNYPSTASQTNHCPRASSQPTVSGNTSLTTNHQYVSSGYPSLQNSFIKSGPSVPPLVNPPLPTTFQPGAPHGPPPAGGPPPVRALTPLTSSYRDVPQPLFNSAVNQEGITSNTNNGSMVVHSSYDEIEGGGLLATPQLTNKNPKMSRSVGYSYPSLPPGYQNTTPPGATGVPPSSLNYPSGPQAFTQTPLGANHLTTSMSGLSLQPEGLRVVNLLQERNMLPSTPLKPPVPNLHEDIQKLNCNPELFRCTLTSIPQTQALLNKAKLPLGLLLHPFKDLVQLPVVTSSTIVRCRSCRTYINPFVSFLDQRRWKCNLCYRVNDVPEEFLYNPLTRVYGEPHRRPEVQNATIEFMAPSEYMLRPPQPPVYLFVFDVSHNAVETGYLNSVCQSLLDNLDLLPGNTRTKIGFITFDSTIHFYGLQESLSQPQMLIVSDIEDVFIPMPENLLVNLNESKELVQDLLKTLPQMFTKTLETQSALGPALQAAFKLMSPTGGRMSVFQTQLPTLGVGALKPREEPNHRSSAKDIHMTPSTDFYKKLALDCSGQQVAVDLFLLSGQYSDLASLGCISRYSAGSVYYYPSYHHQHNPVQVQKLQKELQRYLTRKIGFEAVMRIRCTKGLSIHTFHGNFFVRSTDLLSLPNVNPDAGYAVQMSVEESLTDTQLVSFQSALLYTSSKGERRIRVHTLCLPVVSTLNDVFLGADVQAISGLLANMAVDRSMTASLSDARDALVNAVIDSLSAYRSSVLSNQQPGLMVPFSLRLFPLFVLALLKQKSFQTGTNARLDERIFAMCQVKNQPLVYLMLTTHPSLYRVDNLSDEGALNISDRTIPQPPILQLSVEKLSRDGAFLMDAGSVLMLWVGKNCTQNFLSQVLGVQNYASIPQPMTDLPELDTPESARIIAFISWLREQRPFFPILYVIRDESPMKANFLQNMIEDRTESALSYYEFLLHIQQQVNK [SEC24A]”, for which, in the data set with HeLa Kyoto [1], the “solubility in G1/S (log2)” value worked out at 0.00033. The melting temperature in the data set with HeLa Kyoto [2] (cell cycle stage: G1/S) and with HeLa Kyoto [2] (cell cycle stage: mitosis) was 49.5 °C each time. The “solubility change mitosis (log2)” value in the data set on HeLa Kyoto [3] was -0.0997. The thermal stability score in the data set with HeLa Kyoto [4] (setting [5]) stood at 0.052; with HeLa Kyoto [4] (cell cycle stage: mitosis), 0.892.
“MSGRSKRESRGSTRGKRESESRGSSGRVKRERDREREPEAASSRGSPVRVKREFEPASAREAPASVVPFVRVKREREVDEDSEPEREVRAKNGRVDSEDRRSRHCPYLDTINRSVLDFDFEKLCSISLSHINAYACLVCGKYFQGRGLKSHAYIHSVQFSHHVFLNLHTLKFYCLPDNYEIIDSSLEDITYVLKPTFTKQQIANLDKQAKLSRAYDGTTYLPGIVGLNNIKANDYANAVLQALSNVPPLRNYFLEEDNYKNIKRPPGDIMFLLVQRFGELMRKLWNPRNFKAHVSPHEMLQAVVLCSKKTFQITKQGDGVDFLSWFLNALHSALGGTKKKKKTIVTDVFQGSMRIFTKKLPHPDLPAEEKEQLLHNDEYQETMVESTFMYLTLDLPTAPLYKDEKEQLIIPQVPLFNILAKFNGITEKEYKTYKENFLKRFQLTKLPPYLIFCIKRFTKNNFFVEKNPTIVNFPITNVDLREYLSEEVQAVHKNTTYDLIANIVHDGKPSEGSYRIHVLHHGTGKWYELQDLQVTDILPQMITLSEAYIQIWKRRDNDETNQQGA [USP39]”: in the data set with HeLa Kyoto [1], the “solubility in G1/S (log2)” value is -0.4. In addition, the melting temperature was determined as 51.4 °C in the data set on HeLa Kyoto [2] (cell cycle stage: G1/S) and 51.9 °C in the data set on HeLa Kyoto [2] (cell cycle stage: mitosis). Further, the “solubility change mitosis (log2)” value in the data set on HeLa Kyoto [3] worked out at 0.178. In addition, the thermal stability score with HeLa Kyoto [4] (setting [5]) is -0.187; in the data set on HeLa Kyoto [4] (cell cycle stage: mitosis) it was -0.193.
On to WDR48, for which, in the data set with HeLa Kyoto [1], the “solubility in G1/S (log2)” value was -0.162. Also, the values for the melting temperature in the data set with HeLa Kyoto [2] (cell cycle stage: G1/S) and in the data set with HeLa Kyoto [2] (cell cycle stage: mitosis) were 52.5 °C and 53.9 °C, respectively. The “solubility change mitosis (log2)” value in the data set on HeLa Kyoto [3] was -0.036. In addition, the thermal stability score in the data set with HeLa Kyoto [4] (setting [5]) worked out at 3.81; in the data set with HeLa Kyoto [4] (cell cycle stage: mitosis), 2.36.
As to “MSSESSKKRKPKVIRSDGAPAEGKRNRSDTEQEGKYYSEEAEVDLRDPGRDYELYKYTCQELQRLMAEIQDLKSRGGKDVAIEIEERRIQSCVHFMTLKKLNRLAHIRLKKGRDQTHEAKQKVDAYHLQLQNLLYEVMHLQKEITKCLEFKSKHEEIDLVSLEEFYKEAPPDISKAEVTMGDPHQQTLARLDWELEQRKRLAEKYRECLSNKEKILKEIEVKKEYLSSLQPRLNSIMQASLPVQEYLFMPFDQAHKQYETARHLPPPLYVLFVQATAYGQACDKTLSVAIEGSVDEAKALFKPPEDSQDDESDSDAEEEQTTKRRRPTLGVQLDDKRKEMLKRHPLSVMLDLKCKDDSVLHLTFYYLMNLNIMTVKAKVTTAMELITPISAGDLLSPDSVLSCLYPGDHGKKTPNPANQYQFDKVGILTLSDYVLELGHPYLWVQKLGGLHFPKEQPQQTVIADHSLSASHMETTMKLLKTRVQSRLALHKQFASLEHGIVPVTSDCQYLFPAKVVSRLVKWVTVAHEDYMELHFTKDIVDAGLAGDTNLYYMALIERGTAKLQAAVVLNPGYSSIPPVFQLCLNWKGEKTNSNDDNIRAMEGEVNVCYKELCGPWPSHQLLTNQLQRLCVLLDVYLETESHDDSVEGPKEFPQEKMCLRLFRGPSRMKPFKYNHPQGFFSHR [THOC5]”, the “solubility in G1/S (log2)” value in the data set on HeLa Kyoto [1] was -0.323. Besides, the melting temperature in the data set with HeLa Kyoto [2] (cell cycle stage: G1/S) stood at 51.4 °C; with HeLa Kyoto [2] (cell cycle stage: mitosis), 50.4 °C. The “solubility change mitosis (log2)” value in the data set with HeLa Kyoto [3] came out at 0.281. Moreover, the figures for the thermal stability score in the data set on HeLa Kyoto [4] (setting [5]) and with HeLa Kyoto [4] (cell cycle stage: mitosis) were 0.533 and 0.546, respectively.
For the substance UBR2, in the data set with HeLa Kyoto [1], the “solubility in G1/S (log2)” value is -0.361. The values for the melting temperature in the data set with HeLa Kyoto [2] (cell cycle stage: G1/S) and with HeLa Kyoto [2] (cell cycle stage: mitosis) were 49.9 °C and 49.8 °C, respectively. Further, in the data set on HeLa Kyoto [3], the “solubility change mitosis (log2)” value was -0.184. Moreover, the thermal stability score in the data set with HeLa Kyoto [4] (setting [5]) stood at 0.798; in the data set on HeLa Kyoto [4] (cell cycle stage: mitosis), 1.58.
